Measurements reported in the supplement of paper PMC9170038.

System: MS2 coat protein
Experiment: apparent KD of MS2 coat protein; designed switch direction (-1 OFF switch, 1 ON switch): 1; higher = weaker reporter binding
Method in brief: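 Designed RNA switches with common flanks were made on Illumina chips by stalled E. coli RNA polymerase. Titration with SNAP-549-labelled MS2 coat protein doubled from 0.7 or 1.5 nM up to 3 µM. Apparent KD is each design's median over clusters after curve-fitting normalised fluorescence.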

[1] = Eterna round: R95, input ligand: FMN 200 uM
[2] = Eterna round: R95, input ligand: microRNA oligo, concentration not stated
[3] = Eterna round: R95, input ligand: none
[4] = input ligand: microRNA oligo, concentration not stated

Row | Sequence | apparent KD of MS2 coat protein [1] [µM] | apparent KD of MS2 coat protein [2] [µM] | apparent KD of MS2 coat protein [3] [µM] | apparent KD of MS2 coat protein (input ligand: FMN 200 uM) [µM] | apparent KD of MS2 coat protein [4] [µM] | apparent KD of MS2 coat protein (input ligand: none) [µM]
1 | AGGUGGUGUGGAAAGGAUAUACGGUUGAGGACAUGAGGAUCACCCAUGUGGUAGAGGACGUAAGGGUAGAAGGUUCGGGAUUGGU [JR_SS@_Sub022] (puzzle: Same State 2) | 0.0412 | 0.0365 | 0.0417 | – | – | –
2 | AGUAGUGUAACAUGAGGAUCACCCAUGUAAGUAGAUGUAACCUAGGAUAUGGAUGAUAUGUUAGUCCAGAAGGAGGAUUGUUUA [JR_SSNG3_Sub038] (Eterna round: R96, puzzle: Same State NG 3) | – | – | – | 0.0206 | 0.0367 | 0.0348
3 | AGUCAAGACAUGAGGAUCACCCAUGUUGGGAACAUGGAGGACGAGGAUAUGUGUCGAUAUGUGACGUAGAAGGCGUCAGACAAA [Eternabot solution 33] (Eterna round: R96, puzzle: Same State NG 3) | – | – | – | 0.189 | 0.224 | 0.419
4 | AGUCCAGCAUAAGCUGGACAAAAGCAUGUACAUGAGGAUCACCCAUGUUCAUGUACAAGCUUUUUGCAAGUCAAAAU [Mat - hsa-mir-208a - Mod of JL - 82] (puzzle: Sensor for hsa-mir-208a) | 0.374 | 0.018 | 0.734 | – | – | –
5 | AGUCCAGCCAAAGCUGGACAAAAGCAUGUACAUGAGGAUCACCCAUGUUCAUGUACAAGCUUUUUGCAAGUCAAAAU [Mat - hsa-mir-208a - Mod of JL - 78] (puzzle: Sensor for hsa-mir-208a) | 0.542 | 0.0171 | 0.433 | – | – | –
6 | AGUCCAGCCAGAGCUGGACAAAAGCAUGUACAUGAGGAUCACCCAUGUUCAUGUACAAGCUUUUUGCAAGUCAAAAG [Mat - hsa-mir-208a - Mod of JL - 74] (puzzle: Sensor for hsa-mir-208a) | 0.503 | 0.0259 | 0.78 | – | – | –
7 | AGUCCAGCCUAAGCUGGACAAAAGCAUGUACAUGAGGAUCACCCAUGUUCAUGUACAAGCUUUUUGCAAGUCAAAAU [Mat - hsa-mir-208a - Mod of JL - 79] (Eterna round: R96, puzzle: Sensor for hsa-mir-208a) | – | – | – | 0.837 | 0.0191 | 0.725
8 | AGUCCAGCCUAAGCUGGACAAAAGCAUGUACAUGAGGAUCACCCAUGUUCAUGUACAAGCUUUUUGCAAGUCAAAAU [Mat - hsa-mir-208a - Mod of JL - 79] (puzzle: Sensor for hsa-mir-208a) | 1.05 | 0.0193 | 1.05 | – | – | –
9 | AGUCCAGCCUGAGCUGGACAAAAGCAUGUACAUGAGGAUCACCCAUGUCAUGUACAAGCUUUUUGCUCAUCUUAAAA [Mat - hsa-mir-208a - Mod of JL - D11] (Eterna round: R96, puzzle: Sensor for hsa-mir-208a) | – | – | – | 0.75 | 0.0118 | 0.886
10 | AGUCCAGCCUGAGCUGGACAAAAGCAUGUACAUGAGGAUCACCCAUGUCAUGUACAAGCUUUUUGCUCAUCUUAAAA [Mat - hsa-mir-208a - Mod of JL - D11] (puzzle: Sensor for hsa-mir-208a) | 0.624 | 0.0164 | 0.922 | – | – | –
11 | AGUCCAGCCUGAGCUGGACAAAAGCAUGUACAUGAGGAUCACCCAUGUCAUGUACAAGCUUUUUGCUCGUCUAAAAU [Mat - hsa-mir-208a - Mod of JL - D6] (puzzle: Sensor for hsa-mir-208a) | 0.43 | 0.0163 | 0.675 | – | – | –
12 | AGUCCAGCCUGAGCUGGACAAAAGCAUGUACAUGAGGAUCACCCAUGUUCAUGUACAAGCUUUUUGCUCGUCAAAAG [Mat - hsa-mir-208a - Mod of JL - 67] (puzzle: Sensor for hsa-mir-208a) | 0.18 | 0.0183 | 0.372 | – | – | –
13 | AGUCCAGCCUGAGCUGGACAAAAGCAUGUACAUGAGGAUCACCCAUGUUCAUGUACAAGCUUUUUGCUCGUCUUACG [salish99_208a_r3_078] (puzzle: Sensor for hsa-mir-208a) | 0.673 | 0.0171 | 0.638 | – | – | –
14 | AGUCCAGCCUGAGCUGGACAAAAGCAUGUACAUGAGGAUCACCCAUGUUCAUGUACAAGCUUUUUGCUCGUCUUAUG [salish99_208a_r3_051] (puzzle: Sensor for hsa-mir-208a) | 1.04 | 0.017 | 0.634 | – | – | –
15 | AGUCCAGCCUGAGCUGGACAAAAGCAUGUACAUGAGGAUCACCCAUGUUCAUGUACAAGCUUUUUGCUCGUCUUGAA [salish99_208a_r3_095x] (Eterna round: R96, puzzle: Sensor for hsa-mir-208a) | – | – | – | 0.646 | 0.0161 | 0.572
16 | AGUCCAGCCUGAGCUGGACAAAAGCAUGUACAUGAGGAUCACCCAUGUUCAUGUACAAGCUUUUUGCUCGUCUUGAA [salish99_208a_r3_095x] (puzzle: Sensor for hsa-mir-208a) | 0.71 | 0.0135 | 0.817 | – | – | –
17 | AGUCCAGCCUGAGCUGGACAAAGACAUGUACAUGAGGAUCACCCAUGUCAUGUACAAGUUUUUUGCUCGUCUUAUAA (puzzle: Sensor for hsa-mir-208a) | 0.0367 | 0.0125 | 0.0441 | – | – | –
18 | AGUCCAGCCUGAGCUGGACAAAGGCAUGUACAUGAGGAUCACCCAUGUCAUGUACAAGCUUUUUGCUCGUCUUAAUA [Zipper 49 - 1] (Eterna round: R96, puzzle: Sensor for hsa-mir-208a) | – | – | – | 0.211 | 0.0126 | 0.178
19 | AGUCCAGCCUGAGCUGGACAAAGGCAUGUACAUGAGGAUCACCCAUGUCAUGUACAAGCUUUUUGCUCGUCUUAAUA [Zipper 49 - 1] (puzzle: Sensor for hsa-mir-208a) | 0.177 | 0.015 | 0.22 | – | – | –
20 | AGUCCAGCCUGAGCUGGACAAAGGCAUGUACAUGAGGAUCACCCAUGUUCAUGUACAAGCUUUUUGCUCGUCUUAAA [Zipper 52 - 1] (puzzle: Sensor for hsa-mir-208a) | 0.14 | 0.0115 | 0.181 | – | – | –
21 | AGUCCAGCGAAAGCUGGACAAAAGUAUGUACAUGAGGAUCACCCAUGUUCAUGUACAAGCUUUUUGCUCGUCUUAAA [JL mod - D95 - 10] (puzzle: Sensor for hsa-mir-208a) | 0.578 | 0.0203 | 0.62 | – | – | –
22 | AGUCCUGAAAAGAAAAUAAAGAGAGAUGUACAUGAGGAUCACCCAUGUCAUGUACAAGUUCUAUGCUCGUCAUAUAA [Sensorship 23 - Jieux - Sensor for hsa-mir-208a] (puzzle: Sensor for hsa-mir-208a) | 0.913 | 0.113 | 1.43 | – | – | –
23 | AGUCCUGAAAGGAAAAUUAUAAGUGAUGUACAUGAGGAUCACCCAUGUCAUGUACAAGUUCUAUGCUCGUCUUAUAA [Sensorship 25 - Jieux - Sensor for hsa-mir-208a] (puzzle: Sensor for hsa-mir-208a) | 0.222 | 0.0341 | 0.216 | – | – | –
24 | AGUCCUGAAUAAAUUAAACAGAGACAUGUACAUGAGGAUCACCCAUGUCAUGUGCAAGUUUUAUGCUCGUCAUAUAA [Sensorship 18 - Jieux - Sensor for hsa-mir-208a] (puzzle: Sensor for hsa-mir-208a) | 0.013 | 0.00835 | 0.0128 | – | – | –
25 | AGUCUACGGUGACGUAGACAGUGGUGCGUACAUGAGGAUCACCCAUGUCAUGUGAGAGUUACUUGUUCGUCUUGAGC [SENSOR #4] (puzzle: Sensor for hsa-mir-208a) | 0.0207 | 0.0217 | 0.0226 | – | – | –
26 | AGUUGUGGAAAACUAUAGCAAAAGCAUGUACAUGAGGAUCACCCAUGUCAUGUACAAGCUUUUUGCUCGUCUUAUGG [ak 3 mod of one Eli's designs.] (puzzle: Sensor for hsa-mir-208a) | 0.025 | 0.0139 | 0.0503 | – | – | –
27 | AUAAAACAUGAGGAUCACCCAUGUAAUCGCCAGACAGGAUAUAUAGUGGCAUUUGCAGGGAUAGAAGGGUCGUGGC [Lerainxege] (puzzle: Same State 1) | 0.0156 | 0.0351 | 0.037 | – | – | –
